T1: human PXR-GST (Invitrogen) (human) (UniProt O75469)
T1 sequence: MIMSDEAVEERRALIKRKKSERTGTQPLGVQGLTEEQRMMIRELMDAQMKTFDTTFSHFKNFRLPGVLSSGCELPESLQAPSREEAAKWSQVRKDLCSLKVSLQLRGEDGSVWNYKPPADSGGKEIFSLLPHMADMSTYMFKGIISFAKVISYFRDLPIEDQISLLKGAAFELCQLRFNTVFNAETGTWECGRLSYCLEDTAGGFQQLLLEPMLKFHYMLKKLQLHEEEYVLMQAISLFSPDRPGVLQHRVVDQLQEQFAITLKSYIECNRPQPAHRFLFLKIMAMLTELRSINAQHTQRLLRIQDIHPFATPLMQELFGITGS

B1: Adnectin-8 (designed binder)
chain: MGVSDVPRDLEVVAATPTSLLISWSQPGRYVKYYRITYGETGGNSPVQEFTVPNDTYTATISGLKPGVDYTITVYAVYGKYGPYYGYDPISINYRTEIDKPSQHHHHHH
B2: Adnectin-3 (designed binder)
chain: MASTSGVSDVPRDLEVVAATPTSLLISWDAPAVPVSKYVIYYWPGALISSMQAFKVPGSKSTATISGLKPGVLYSIVVDALTGDGQGSYVWDPITITYRTEGSGSHHHHHH
B3: Adnectin-5 (designed binder)
chain: MGVSDVPRDLEVVAATPTSLLISWKYPYETISYYRITYGETGGNSPVQEFTVPYYRSTATISGLKPGVDYTITVYAVEASAPYSDGGSPISINYRTEIDKPSQHHHHHH
B4: Adnectin-7 (designed binder)
chain: MGVSDVPRDLEVVTATPTSLLISWDGPKYYVKYYRITYGETGGNSPVQEFTVPRTDHTATISGLKPGVDYTITVYAVKGQYGPYYGSRPISINYRTEIDKPSQHHHHHH
B5: Adnectin-2 (designed binder)
chain: MASTSGVSDVPRDLEVVAATPTSLLISWDAPAVTVNNYRITYQPLLQGSSIQHFDVPGSKSTATISGLKPGVGYQITVYASTYTHSKAYYSLPISIYYRTEGSGSHHHHHH
B6: Adnectin-6 (designed binder)
chain: MGVSDVPRDLEVVAATPTSLLISWSRPKGSIKYYRITYGETGGNSPVQEFTVPNSQYTATISGLKPGVDYTITVYAVYGYPYQEPHYYPISINYRTEIDKPSQHHHHHH
B7: Adnectin-4 (designed binder)
chain: MASTSGVSDVPRDLEVVAATPTSLLISWDAPAVTVHSYYITYQELQHHSVPQGFQVPGSKSTATISGLKPGVAYQIAVYAFTGPGLPPSDAPPIVIYYRTEGSGSHHHHHH
B8: Adnectin-1 (designed binder)
chain: MASTSGSTHYYKGTADLEVVAATPTSLLISWPPPYYVEGVTVFRITYGETGGNSPVQEFTVPYWTETATISGLKPGVDYTITVYAEMYPGSPWAGQVMDIQPISINYRTEGSGSHHHHHH
B9: WS1 binder of SEQ ID NO: 49 (designed binder)
chain: MASTSGVSDVPRDLEVVAATPTSLLISWDAPAVTVHSYYITYQELQHHSVPQGFQVPGSKSTATISGLKPGVAYQIAVYAFTGPGLPPSDAPPIVIYYRTEGSGS
B10: WS1 binder of SEQ ID NO: 48 (designed binder)
chain: MASTSGVSDVPRDLEVVAATPTSLLISWDAPAVPVSKYVIYYWPGALISSMQAFKVPGSKSTATISGLKPGVLYSIVVDALTGDGQGSYVWDPITITYRTEGSGS

Experimental findings from patent publication US11279751B2 are described below.

The first test concerns the target T1, human PXR-GST (Invitrogen) (human). As to the kind of experiment: SPR (Biacore T100), Adnectin series over human PXR-GST captured by anti-GST antibody. For orientation: In SPR one partner is held on a chip, and binding of the other changes the refractive index at the surface.
By Kd is commonly meant the equilibrium constant for the complex coming apart. A higher Kd goes with a looser complex. As a reminder, the koff is the rate constant with which the complex falls apart. A higher koff goes with a short-lived complex. What is called kon is the second-order rate constant of association. Higher therefore signals faster complex formation. B1 displayed a dissociation constant Kd of 4.4 nM, an off-rate (koff) of 0.000182 s⁻¹ and a kon of 41700 M⁻¹ s⁻¹.

B2 had a Kd of 2.5 nM, a dissociation rate constant (koff) of 0.000378 s⁻¹ and a kon of 16200 M⁻¹ s⁻¹.

As for B3, the dissociation constant (Kd) amounted to 5.4 nM, the koff worked out at 0.0027 s⁻¹ and the kon came to 509000 M⁻¹ s⁻¹.

In the case of B4, the Kd was found to be 0.31 nM, the koff turned out to be 8.82e-05 s⁻¹ and the kon was found to be 288000 M⁻¹ s⁻¹.

As for B5, the Kd worked out at 97.8 nM, the koff was 0.00458 s⁻¹ and the on-rate constant (kon) was determined as 162000 M⁻¹ s⁻¹.

In the case of B6, the Kd was 1.9 nM, the off-rate constant (koff) turned out to be 0.00126 s⁻¹ and the kon came out at 680000 M⁻¹ s⁻¹.

In the case of B7, the Kd was determined as 7.8 nM, the koff is 0.000168 s⁻¹ and the kon stood at 21500 M⁻¹ s⁻¹.

Turning to B8, the Kd was 11.4 nM, the off-rate constant (koff) came out at 0.00119 s⁻¹ and the kon was found to be 104000 M⁻¹ s⁻¹.

For a further test the target is unchanged. The test can be described thus: Biacore, binder at 0.5-2 µM over GST-PXR captured by anti-GST antibody.
For B9, the RU bound came to 81 RU.

B10 returned an RU bound of 146 RU.
